Consider 13 molecules from US20260139007A1 (SANFORD BURNHAM PREBYS MEDICAL DISCOVERY INSTITUTE, published 2026).

Bridge positions count the residues as written; N and C are the ends. Square brackets hold non-standard residues; d marks the D form. Side chains are listed from the residue outwards. Ends that are not written are not given here. * marks the point of attachment. Lauroyl = CCCCCCCCCCCC(=O)*; Octanoyl = CCCCCCCC(=O)*; Dodecyl = CCCCCCCCCCCC*; βAla = NCCC(=O)O

The target in assay [1] is T1, EphA4 Fc (human EphA4 Fc, #CJ75, Novoprotein, or mouse EphA4 Fc, #641-A4, R&D Systems/BioTechne) (human or mouse, UniProt P54764 20-547).
T1 construct: extracellular domain; bought reagents; also called EphA4 extracellular domain fused to the Fc portion of an antibody; not shown: Fc portion of an antibody
Nature of the assay: competition ELISA, inhibition of ephrin-A5 AP binding to immobilized EphA4 Fc.

Assay [2] has as its target T1, EphA4 Fc (human EphA4 Fc, #CJ75, …). The experiment in a line: competition ELISA, inhibition of ephrin-A5 AP binding to immobilized EphA4 Fc, with 40 mg/mL delipidated HSA.
For assay [3] the target is unchanged. The experiment in a line: competition ELISA, ephrin-A5 AP on immobilized EphA4 Fc, same experiments.
For assay [4] the target is unchanged. The experiment in a line: competition ELISA, inhibition of ephrin-A5 AP binding to immobilized EphA4 Fc, with serum albumin (40 mg/mL HSA by the text; the cell has no footnote). (An ELISA detects its analyte on a solid surface through an enzyme-linked reagent.)
For assay [5] the target is unchanged. Nature of the assay: competition ELISA, ephrin-A5 AP on immobilized EphA4 Fc.
The target of assay [6] is FLAG-tagged EphA4 stably expressed in immortalized cells (HEK-EphA4 cells). Nature of the assay: cell-based or functional assay.
The target of assay [7] is T1, EphA4 Fc (human EphA4 Fc, #CJ75, …). The experiment in a line: competition ELISA, inhibition of ephrin-A5 AP binding to immobilized EphA4 Fc, with 20 mg/ml BSA.
For assay [8] the target is unchanged. Nature of the assay: competition ELISA, ephrin-A5 AP on immobilized EphA4 Fc, with and without 20 mg/mL BSA.
For assay [9] the target is unchanged. Nature of the assay: competition ELISA, inhibition of ephrin-A5 AP binding to immobilized EphA4 Fc; 0 time point, compound diluted in mouse plasma in vitro (apparent IC50).

T1 sequence (P54764 20-547): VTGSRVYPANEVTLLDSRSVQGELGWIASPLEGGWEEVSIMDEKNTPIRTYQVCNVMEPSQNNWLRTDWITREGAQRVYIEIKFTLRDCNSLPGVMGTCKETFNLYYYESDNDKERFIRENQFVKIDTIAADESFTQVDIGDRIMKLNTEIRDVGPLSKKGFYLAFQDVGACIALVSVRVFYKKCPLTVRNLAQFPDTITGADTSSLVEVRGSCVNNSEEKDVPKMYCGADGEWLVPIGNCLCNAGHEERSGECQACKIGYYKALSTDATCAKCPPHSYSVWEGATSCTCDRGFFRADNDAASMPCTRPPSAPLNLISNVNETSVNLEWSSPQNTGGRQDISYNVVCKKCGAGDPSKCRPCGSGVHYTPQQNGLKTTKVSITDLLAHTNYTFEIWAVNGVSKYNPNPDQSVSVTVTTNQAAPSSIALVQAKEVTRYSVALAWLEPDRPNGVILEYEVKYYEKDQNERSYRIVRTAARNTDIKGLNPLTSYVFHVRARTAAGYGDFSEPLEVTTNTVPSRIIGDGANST

B1: compound 4 (peptide)
peptide: [βAla]PYCVYK(Octanoyl)[βAla]SWSC-NH2
modifications: disulfide 4-12; N-terminus assumed
SMILES: CCCCCCCC(=O)NCCCC[C@@H]1NC(=O)[C@H](Cc2ccc(O)cc2)NC(=O)[C@H](C(C)C)NC(=O)[C@@H](NC(=O)[C@H](Cc2ccc(O)cc2)NC(=O)[C@@H]2CCCN2C(=O)CCN)CSSC[C@@H](C(N)=O)NC(=O)[C@H](CO)NC(=O)[C@H](Cc2c[nH]c3ccccc23)NC(=O)[C@H](CO)NC(=O)CCNC1=O
notes: also called peptide 4; βAPYCVYK(octanoyl)βASWSC-NH2
In the case of B1, the 50% inhibitory concentration (IC50) was determined as 34 nM in assay [1] and 100 nM in assay [2].

B2: compound 1 (peptide)
peptide: APYCVYK[βAla]SWSC-NH2
modifications: disulfide 4-12; N-terminus assumed
SMILES: CC(C)[C@@H]1NC(=O)[C@@H](NC(=O)[C@H](Cc2ccc(O)cc2)NC(=O)[C@@H]2CCCN2C(=O)[C@H](C)N)CSSC[C@@H](C(N)=O)NC(=O)[C@H](CO)NC(=O)[C@H](Cc2c[nH]c3ccccc23)NC(=O)[C@H](CO)NC(=O)CCNC(=O)[C@H](CCCCN)NC(=O)[C@H](Cc2ccc(O)cc2)NC1=O
notes: also called peptide 1; APYCVYKβASWSC-NH2
Consider B2, for which the figures for the IC50 in assay [1] and in assay [4] were 67 nM and 55 nM, respectively. Moreover, in [3], the “fold decrease in potency (IC50) against APY-d2” value is around 2 fold.

B3: compound 6 (peptide)
peptide: [βAla]PYCVYK([Gly-octanyl])[βAla]SWSC-NH2
modifications: disulfide 4-12
notes: also called peptide 6; βAPYCVYK(octanyl-G)βASWSC-NH2
Turning to B3, the IC50 in [1] worked out at 42 nM; in [2] it was 130 nM.

B4: compound 8 (peptide)
peptide: [βAla]PYCVYK(Lauroyl)[βAla]SWSC-NH2
modifications: disulfide 4-12; N-terminus assumed
SMILES: CCCCCCCCCCCC(=O)NCCCC[C@@H]1NC(=O)[C@H](Cc2ccc(O)cc2)NC(=O)[C@H](C(C)C)NC(=O)[C@@H](NC(=O)[C@H](Cc2ccc(O)cc2)NC(=O)[C@@H]2CCCN2C(=O)CCN)CSSC[C@@H](C(N)=O)NC(=O)[C@H](CO)NC(=O)[C@H](Cc2c[nH]c3ccccc23)NC(=O)[C@H](CO)NC(=O)CCNC1=O
notes: also called peptide 8; βAPYCVYK(lauroyl)βASWSC-NH2
In assay [1], B4 yielded a concentration for half-maximal inhibition (IC50) of 390 nM. Besides, the “fold decrease in potency against APY-d3 similarly modified with a C8 lipid” value in [5] is above 10 fold.

B5: compound 7 (peptide)
peptide: XPYCVYRXSWSCGGKG
modifications: β-alanine at 1 and 8; octanoyl on the side chain of the Lys of the C-terminal GGKG; C-terminal amide; disulfide bond Cys4-Cys12 (cyclic)
notes: also called peptide 7
In the case of B5, the IC50 in assay [1] is 34 nM; in assay [2], 110 nM.

B6: compound 5 (peptide)
peptide: [βAla]PYCVYK(Octanoyl)[βAla]SWSCGGRG-NH2
modifications: disulfide 4-12; N-terminus assumed
SMILES: CCCCCCCC(=O)NCCCC[C@@H]1NC(=O)[C@H](Cc2ccc(O)cc2)NC(=O)[C@H](C(C)C)NC(=O)[C@@H](NC(=O)[C@H](Cc2ccc(O)cc2)NC(=O)[C@@H]2CCCN2C(=O)CCN)CSSC[C@@H](C(=O)NCC(=O)NCC(=O)N[C@@H](CCCNC(=N)N)C(=O)NCC(N)=O)NC(=O)[C@H](CO)NC(=O)[C@H](Cc2c[nH]c3ccccc23)NC(=O)[C@H](CO)NC(=O)CCNC1=O
notes: also called peptide 5
Take B6: the IC50 in [1] amounted to 26 nM; in assay [2], 75 nM.

B7: compound 9 (peptide)
peptide: [βAla]PYCVYK([Gly-Dodecyl])[βAla]SWSC-NH2
modifications: disulfide 4-12
notes: also called peptide 9; βAPYCVYK(lauryl-G)βASWSC-NH2
The molecule B7 registered an IC50 in [1] of 590 nM. For the same molecule, in assay [5], the “fold decrease in potency against APY-d3 similarly modified with a C8 lipid” value is above 10 fold.

B8: APY-d3-PEG4 (peptide)
peptide: XPYCVYRXSWSCXXX
modifications: β-alanine at 1 and 8; disulfide bond Cys4-Cys12 (Cyc (4,12)); three 6-aminohexanoic acid (Ahx) residues and propargyl-glycine (Pra) after Cys12; 30 kDa methoxy-PEG on Pra through a triazole (click chemistry); free C-terminal acid (-OH)
Take B8: in [6], the “IC50 for inhibition of EphA4 tyrosine phosphorylation (pY596) induced by ephrin-A5 Fc in HEK-EphA4 cells, ELISA of cell lysates” value was around 700 nM and the “fold loss of potency against APY-d3, EphA4 tyrosine phosphorylation in HEK-EphA4 cells” value was around 2.5 fold.

B9: compound 12 (peptide)
peptide: XPYCVYRXSWSCGGKG
modifications: β-alanine at 1 and 8; lauroyl on the side chain of the Lys of the C-terminal GGKG; C-terminal amide; disulfide bond Cys4-Cys12 (cyclic)
notes: also called peptide 12
In the case of B9, the IC50 in assay [1] stood at 240 nM; in assay [2] it was 920 nM.

B10: compound 3 (peptide)
peptide: [βAla]PYCVYK[βAla]SWSC-NH2
modifications: disulfide 4-12; N-terminus assumed
SMILES: CC(C)[C@@H]1NC(=O)[C@@H](NC(=O)[C@H](Cc2ccc(O)cc2)NC(=O)[C@@H]2CCCN2C(=O)CCN)CSSC[C@@H](C(N)=O)NC(=O)[C@H](CO)NC(=O)[C@H](Cc2c[nH]c3ccccc23)NC(=O)[C@H](CO)NC(=O)CCNC(=O)[C@H](CCCCN)NC(=O)[C@H](Cc2ccc(O)cc2)NC1=O
notes: also called peptide 3; βAPYCVYKβASWSC-NH2
Consider B10, for which the 50% inhibitory concentration (IC50) in assay [1] amounted to 70 nM. Moreover, in assay [3], the “fold decrease in potency (IC50) against APY-d3” value was around 2 fold.

B11: compound 16 (peptide)
peptide: XPYCVYRXSWSCGGKG
modifications: β-alanine at 1 and 8; myristoyl-γGlu-γGlu on the side chain of the Lys of the C-terminal GGKG; C-terminal amide; disulfide bond Cys4-Cys12 (cyclic)
notes: also called peptide 16
Turning to B11, the half-inhibitory concentration (IC50) in assay [1] was determined as 77 nM; in [2], 1370 nM.

B12: compound 21 (peptide)
peptide: [βAla]PYCVYR[βAla]SWSCRLIEDICLPRWGCLWEDD-NH2
modifications: disulfide 4-12, 19-25; N-terminus assumed
SMILES: CC[C@H](C)[C@H](NC(=O)[C@H](CC(C)C)NC(=O)[C@H](CCCNC(=N)N)NC(=O)[C@@H]1CSSC[C@H](NC(=O)[C@H](Cc2ccc(O)cc2)NC(=O)[C@@H]2CCCN2C(=O)CCN)C(=O)N[C@@H](C(C)C)C(=O)N[C@@H](Cc2ccc(O)cc2)C(=O)N[C@@H](CCCNC(=N)N)C(=O)NCCC(=O)N[C@@H](CO)C(=O)N[C@@H](Cc2c[nH]c3ccccc23)C(=O)N[C@@H](CO)C(=O)N1)C(=O)N[C@@H](CCC(=O)O)C(=O)N[C@@H](CC(=O)O)C(=O)N[C@H](C(=O)N[C@H]1CSSC[C@@H](C(=O)N[C@@H](CC(C)C)C(=O)N[C@@H](Cc2c[nH]c3ccccc23)C(=O)N[C@@H](CCC(=O)O)C(=O)N[C@@H](CC(=O)O)C(=O)N[C@@H](CC(=O)O)C(N)=O)NC(=O)CNC(=O)[C@H](Cc2c[nH]c3ccccc23)NC(=O)[C@H](CCCNC(=N)N)NC(=O)[C@@H]2CCCN2C(=O)[C@H](CC(C)C)NC1=O)[C@@H](C)CC
notes: also called peptide 21
Consider B12, for which the values for the half-maximal inhibitory concentration (IC50) in assay [7] and in [1] were 130 nM and 18 nM, respectively. Moreover, the “fold decrease in potency with BSA against buffer” value in [8] is around 8 fold.

B13: compound 14 (peptide)
peptide: XPYCVYRXSWSCGGKG
modifications: β-alanine at 1 and 8; lauroyl-γ-glutamic acid on the side chain of the Lys of the C-terminal GGKG; C-terminal amide; disulfide bond Cys4-Cys12 (cyclic)
notes: also called peptide 14
As for B13, the IC50 in assay [9] came to 81 nM.

In general, IC50 refers to the concentration that gives 50% inhibition.
